B1: TPR t1 (parent)
chain: GACCAAUCUGCCCUCAGAGCUCGAGAACAUCUUCGGAUGCAGAGGAGGCAGGCUUCGGUGGCGCGAUAGCGCCAACGUCCUCAACCUCCAAUGCAUCCCACCACAUGAUGAUGCCUGAAGAGCCUUGGUUUUUUG

Variants of: B1
Experiment: polymerase ribozyme fitness, log enrichment relative to wild type (log ratio); higher = more active; in vitro selection for triplet polymerase activity
How it was run: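 For each subunit of a heterodimeric triplet polymerase ribozyme, a mutant library was built by PCR and transcribed, then taken through a single in vitro selection round in triplicate. Selection involved annealing to a biotinylated primer, the partner subunit and triplets, incubation frozen at −7 °C, gel excision of extended constructs, capture on streptavidin beads and RT-PCR. Genotypes were retained after Illumina sequencing of inputs and outputs only with ≥10 input reads and ≥1 read in each output. Fitness is defined as the logarithm of a genotype's enrichment relative to wild-type enrichment, using inverse-variance-weighted averages across replicates, with the logarithm taken to base 2.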

GACCAAUCUGGCCUCAGAGCACGAGAACAUCUUCGGAUGCAGAGGAGGCAGGCUUCGGUGGCGCGAUAGCGCCAACGUCCUCAACCUCCAAUGCAUCCCACCACAUGAUGAUGCCUGAAGAGCCUUGGUUUUUUG and GACCAAUCUGGCCCCAGAGCUCGAGAACAUCUUCGGAUGCGGAGGAGGCAGGCUUGGGUGGCGCGAUAGCGCCAACGUCCUCAACCUCCAAUGCAUCCCACCACAUGAUGAUGCCUGAAGAGCCUUGGUUUUUUG are within 0.2 log units of each other in “polymerase ribozyme fitness (log ratio)” value: -0.298 for the first, -0.436 for the second.

First: GACCAAUCUGGCCUCAGAGCUCGAGAACAUCUUCGGAUGCAGAGGAGGCAGGCUUCGGUGGCGCGAUAGCGCCAACGUCCUCAACCUCCAAUGCAUCCCACCACAUGAUGAUGCCUGAAGAGCCUUGAUUUUUUG
Second: GACCAAUCUGGCCUCAGAGCUCGAGAACAUCUUCGGAUGCAGAGGAGGCAGGCUUCGGUGGCGCGAUAGCACCAACGUCGUCAACCUCCAAUGCAUCCCACCACAUGAUGAUGCCUGAAGAGCCUUGAUUUUUUG
The “polymerase ribozyme fitness (log ratio)” value of the first is higher: -1.59 for the first, -6.67 for the second.

Compared with GACCAAUCUGGCCUCAGAGCUCGAGAACAUCUUCGGAUGCAGAGGAGGCAGGCUUCGGUGGCGCGAUAGCGCCAACAUCCUCAACCUCCAAAGCAUCCCACCACAUGAUGAUGCCUGAAGAGCCUUGGCUUUUUG, GACCAAUCUGGCCUCAGAGCUCGAGAACAUCUUCGGAUGCAGAGGAGGCAGGCUUCGGUGGCGCGAUAACGCCAACGUCCUCAACCUCCAAUGCAUCCCACCACAUGAUGAUGCCUGAAGAGCCUUGGUUUUUUG is higher in “polymerase ribozyme fitness (log ratio)” value: -4.39 for the first, -2.73 for the second.

First: GACCAAUCUGGCCUCAGAGCUCGAGAACAUCUUCGGAUGCAGAGGAGGCAAGGUUCGGUGUCGCGAUAGCGCCAACGUCCUCAACCUCCAAUGCAUCCCACCACAUGAUGAUGCCUGAAGAGCUUUGGUUGUUUG
Second: GACCAAUCUGGCCUCAGAGCUCGAGAACAUCUUCGGAUGCAGAGGAGGCAGGCUUCGGUGGCGCGAUAGCGCCAACUUCCUCAACCUCCAAUGCAUCCCACCACAUGAUGAUGCCUGAAGAGCCUUGGUUUUUUG
The “polymerase ribozyme fitness (log ratio)” value of the first is lower: -1.99 for the first, 0.134 for the second.

First: GACCAAUCUGGCCUCAGAGCUCGAGAACAUCUUCGGAUGCAGAGGAGGCAGGCUUCGGUGGCGCGAUAGCGCCAACGUCCUCAACCUCCAAUGCAUCCCACCACAUGAUGAUGCCUGAAGAUCCUUGGUUUUUUG
Second: GACCAAUCUGGCCUCAGAGCUCGAGAACAUCUUCGGAUGCAGAGGAGACAGGCUUCGGUGGCGCGAUAGCGCCAACGUCCUUAACCUCCAAUGCAUCCCACCACAUGAUGAUGCCUGAAGAUCCUUGGUUUUUUG
The “polymerase ribozyme fitness (log ratio)” value of the first is higher: 0.995 for the first, 0.0866 for the second.

Compared with GACCAAUCUGGCCUCAGAGCUCGAGAACAUCUUCGGAUGCAGAGGAGGCAGUCUUCGGUGGGGCGAUAGCGCCAACGUCCUCAACCUCCAAUGCAUCCCACCACAUGAUGAUGCCAGAAGAGCCUUGGUUUUUUG, GACCAAUCUGGCCUCAGAGCUCGAGAACAUCUUCGGAUGCAGAGGAGGCAGGCUUCAGUGGCGCGAUAGCGCCAACGUCCUCAACCUCCAAUACAACCCACCACAUGAUGAUGCCUGAAGAGCCUUGGUUUUUUG is higher in “polymerase ribozyme fitness (log ratio)” value: -5.35 for the first, -2.56 for the second.

First: GACCAAUCUGGCCUCAGAGCUCGAGAACAUCUUCGGAUGCAGAGGAGGCAGGCUUCGGUUGCGCGAUAGCGCCAACGUCCUCAACCUCCAAUGCAUCCCACCACAUGAUGAUGCCGGAAGAGCUUUGGUUUUUUG
Second: GACCAAUCUGGCCUCAGAGCUCGAGAACAUCUUCGGAUGCAGAGGAGGCAGGCUUCGGUGGCGCGAUAGCGCCAACGUCCUCAACCUCCAAUCCAUGCCACCACAAGAUGAUGCCUGAACAGCCUUGGUUUUUUG
The “polymerase ribozyme fitness (log ratio)” value of the first is higher: -3.49 for the first, -3.9 for the second.

GACCAAUCUGGCCACAGAUCUCGAGAACAUCUUCGGAUGCAGAGGAGGCAGGCUGCGGUGGCGCGAUAGCGCCAACGUCCUCAACCUCCAAGGCAUCCCACCACAUGAUGAUGCCUGAAGGGCCUUGGUUUUUUG and GACCAAUCUGGCCUCAGAGCUCGAGAACAUCUUCGGAUGCAGAGGAGGCAGGCUUCGGUGGCGCGAUAGCGCCAACGUCCUCAACCUCCAAUGCAUCCCACCACAUGAUCAUGCCUGAAGAGCCUUGGUUUUUUG are within 0.2 log units of each other in “polymerase ribozyme fitness (log ratio)” value: -3.45 for the first, -3.47 for the second.

Going from GACCAAUCUGGCCUCAGAGCUCGAGAACAUCUUCGGAUGCAGAGGAGGCAGGCUUCGGUGGCGCGAUAGCGCCAACGUCCUCAACCUCCAAUGCAUCCCACCACAUGAUAAUGCCUGAAGAGCCUUGGUUUUUUG to GACCAAUCUGGCCUCAGAGCUCGAGAACAUCUUCGGAUGCAGAGGAGGCAGGCUUCGGUGGCGCGAUAGCGCCAACGUCCUCAACCUCCAAUGCAUCCCACCACAUGAUUAUGCCUGAAGAGCCUUGGUUUUUUG, the “polymerase ribozyme fitness (log ratio)” value rises from -1.04 to -0.409.

First: GACCAAUCUGGCCUCAGAGCUCGAGAACAUCUUCGGAUGCAGAGGAGGCAGGCUUCGGUGGCGCGAUAGCGCCAACGUCCUCAACCUCCAAUGCAUCCCACCACAUGAUGAUUCCUGAAGAGCCUUGGUUUUUUG
Second: GACCAAUCUGGCCUCAGAGCUCGAGAACAUCUUCGGAUGCAGAGGAGGCAGGCUUCGGUGGCGCGAUAGCGCCAACGUCCUCAACCUCCAAUGCAUCCCACCACAUGAUGAUCCCUGAAGAGCCUUGGUUUUUUG
The “polymerase ribozyme fitness (log ratio)” value of the first is lower: -2.12 for the first, -1.3 for the second.

With GACCAAUCUGGCCUCAGAGCUCGAGAACAUCUUCGGAUGCAGAGGAGGCAGGCUUCUGUGGCGCGAUAGCGCCAACGUCCUCAACCUCCAAUGCAUCCCACCACAUGAUGAUGCCUGAAAAGCCUUGGUUUUUUG the “polymerase ribozyme fitness (log ratio)” value was 1.4.
